Tests used:
[1] = target: MAGEA1 peptide VRFFFPSL (SEQ ID NO: 1) presented by HLA-C*07:02 (human); assay: cell-based or functional assay
[2] = target: … (10) (Homo sapiens, UniProt C*07:02); assay: cell-based or functional assay

Binder	EC50 [table, row MAGEA1, column Peptide EC50] [1] [nM]	EC50 (read off the curve) [left panel '4hr Killing (IFP)'] [2] [ng/mL]
MAGEA1 TCR 32-41 (TCR, V domains shown) V domain 1: QLLEQSPQFLSIQEGENLTVYCNSSSVFSSLQWYRQEPGEGPVLLVTVVTGGEVKKLKRLTFQFGDARKDSSLHITAAQPGDTGLYLCAGDESISYGKLTFGQGTILTVHP V domain 2: DAGVIQSPRHEVTEMGQEVTLRCKPISGHDYLFWYRQTMMRGLELLIYFNNNVPIDDSGMPEDRFSAKMPNASFSTLKIQPSEPRDSAVYFCASSFLGWNEKLFFGSGTQLSVLE	~0.25	
MAGEA1 TCR 32-39 (TCR, V domains shown) V domain 1: DQQVKQNSPSLSVQEGRISILNCDYTNSMFDYFLWYKKYPAEGPTFLISISSIKDKNEDGRFTVFLNKSAKHLSLHIVPSQPGDSAVYFCAASAQNNDMRFGAGTRLTVKP V domain 2: NAGVMQNPRHLVRRRGQEARLRCSPMKGHSHVYWYRQLPEEGLKFMVYLQKENIIDESGMPKERFSAEFPKEGPSILRIQQVVRGDSAAYFCASSPSYEQYFGPGTRLTVTE		~8

Reference: patent publication US20230270832A1 (TSCAN THERAPEUTICS, published 2023)
